Source: patent US20220396632A1 (VERSEAU THERAPEUTICS, published 2022)
Non-standard residues stand in square brackets, D forms with d. No end group written: not given here. *: point of attachment. Biotin = O=C1N[C@H]2[C@H](CS[C@H]2CCCCC(=O)*)N1; sY = N[C@@H](Cc1ccc(OS(=O)(=O)O)cc1)C(=O)O

T1: Biotin Y46,48,51(SO3) PSGL-1(42-62) peptide (human, sulfotyrosine at Y46, Y48 and Y51; C-terminal Lys-biotin)
T1 construct: also called fully sulfated N-terminal PSGL-1 peptide
T1 peptide: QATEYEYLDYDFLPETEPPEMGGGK

T2: Scrambled Y42,52,63(SO3) PSGL-1(42-62) biotin peptide (sulfotyrosine at peptide positions 1, 11 and 22; C-terminal Lys-biotin)
T2 peptide: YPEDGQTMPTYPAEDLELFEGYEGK

T3: Biotin PSGL-1(42-62) peptide, unmodified (human, C-terminal Lys-biotin)
T3 construct: Residues 42-62 followed by GGGK-biotin; also called WT; wild-type
T3 peptide: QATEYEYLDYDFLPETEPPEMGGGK

T4: Sulfotyrosine CCR2b biotin peptide (human)
T4 construct: also called CCR2b peptide
T4 peptide: TTFFD[sY]D[sY]GAPSHGGK(Biotin)

T5: SulfoCCK biotin peptide (human)
T5 construct: also called sulfotyrosine CCK peptide
T5 peptide: SHRISDRD[sY]MGWMDFGGK(Biotin)

T6: SulfoTyr C4 peptide (not fully specified; Y4, Y7 and Y9 sulfated (SO3); C-terminal biotin)
T6 construct: also called C4 alpha chain peptide; human sulfotyrosinylated C4 peptide
T6 peptide: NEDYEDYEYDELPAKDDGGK

T7: Human fibrinogen protein (ThermoFisher, RP-43142) (human, UniProt P02671 20-629; P02675 31-491; P02679 27-453, limits assumed, natural sulfotyrosines)
T7 construct: mature; Native dimer with 3 pairs of non-identical chains; also called gamma-fibrinogen; γ fibrinogen protein
T7 sequence (looked up) 1: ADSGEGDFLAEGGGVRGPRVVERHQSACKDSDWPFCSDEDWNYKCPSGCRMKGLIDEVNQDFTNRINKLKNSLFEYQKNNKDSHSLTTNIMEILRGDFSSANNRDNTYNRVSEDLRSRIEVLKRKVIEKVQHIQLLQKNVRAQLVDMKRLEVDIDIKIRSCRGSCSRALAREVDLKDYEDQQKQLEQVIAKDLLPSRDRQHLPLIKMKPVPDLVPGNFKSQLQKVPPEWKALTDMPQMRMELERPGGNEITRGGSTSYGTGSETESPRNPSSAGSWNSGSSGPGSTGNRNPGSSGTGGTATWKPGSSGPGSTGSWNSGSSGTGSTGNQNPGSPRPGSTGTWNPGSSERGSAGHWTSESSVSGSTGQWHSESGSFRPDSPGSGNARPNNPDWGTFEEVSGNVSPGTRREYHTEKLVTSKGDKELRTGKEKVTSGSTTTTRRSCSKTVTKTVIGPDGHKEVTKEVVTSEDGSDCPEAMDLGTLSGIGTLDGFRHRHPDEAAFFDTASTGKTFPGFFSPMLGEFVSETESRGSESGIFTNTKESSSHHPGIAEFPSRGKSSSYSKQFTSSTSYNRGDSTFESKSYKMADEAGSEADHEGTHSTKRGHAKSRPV
T7 sequence (looked up) 2: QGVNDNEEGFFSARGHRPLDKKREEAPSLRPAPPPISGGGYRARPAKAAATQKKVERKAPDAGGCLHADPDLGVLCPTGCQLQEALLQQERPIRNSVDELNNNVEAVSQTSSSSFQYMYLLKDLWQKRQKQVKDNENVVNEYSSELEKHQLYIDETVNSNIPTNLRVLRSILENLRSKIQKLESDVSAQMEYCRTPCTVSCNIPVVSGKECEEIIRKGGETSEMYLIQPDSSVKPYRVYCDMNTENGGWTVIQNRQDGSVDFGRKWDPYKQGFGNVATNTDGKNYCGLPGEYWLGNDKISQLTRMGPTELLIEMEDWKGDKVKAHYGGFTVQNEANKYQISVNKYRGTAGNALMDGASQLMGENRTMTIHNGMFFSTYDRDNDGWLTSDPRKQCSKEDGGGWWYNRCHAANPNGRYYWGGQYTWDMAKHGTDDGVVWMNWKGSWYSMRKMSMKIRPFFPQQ
T7 sequence (looked up) 3: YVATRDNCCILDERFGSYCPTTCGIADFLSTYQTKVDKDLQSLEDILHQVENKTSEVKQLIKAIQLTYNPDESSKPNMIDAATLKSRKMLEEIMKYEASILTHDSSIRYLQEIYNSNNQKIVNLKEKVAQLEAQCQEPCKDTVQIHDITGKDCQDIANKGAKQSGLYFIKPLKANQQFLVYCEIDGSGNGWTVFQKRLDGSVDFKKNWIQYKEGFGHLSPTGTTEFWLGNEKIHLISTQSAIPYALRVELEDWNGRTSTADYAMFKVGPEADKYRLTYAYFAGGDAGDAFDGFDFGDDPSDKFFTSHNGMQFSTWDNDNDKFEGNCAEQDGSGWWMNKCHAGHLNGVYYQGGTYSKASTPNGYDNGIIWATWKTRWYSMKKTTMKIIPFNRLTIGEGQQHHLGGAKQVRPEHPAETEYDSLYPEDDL

T8: Sulfotyr fibrinogen γ peptide (not fully specified; Y8 and Y12 sulfated (SO3); C-terminal biotin)
T8 construct: also called Fibrinogen gamma peptide; human sulfotyrosinylated fibrinogen peptide
T8 peptide: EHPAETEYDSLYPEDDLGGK

T9: Sulfotyrosine D6 biotin peptide (human)
T9 construct: also called D6 peptide
T9 peptide: ENSSFY[sY][sY]D[sY]LDEVAFGGK(Biotin)

B1: 06B02 (antibody, IgG4, V domains shown)
VH: QVQLVESGPGLVKPSETLSLTCTVSGVSVSSYYWTWVRQSPGKGLEWIGHVHHSGISNYNPSLKSRVVMSVDTSKNYFSLKLRSVTAADTAVYYCARGGPRISPTNWGQGTLVTVSS
VL: QPVLTQPPSVSKALRQTATLTCTGNSNNVGYQGATWLRQHQGHPPRLLSYRNNNRPSGISERFSASRSGNTATLTITGLQPDDEADYYCAAWDSSLSAWVFGGGTKLTVL
B2: 02G01 (antibody, IgG4, V domains shown)
VH: EVQLVQSGAEVKKPGASVKVSCKASGYTFTSYGISWVRQAPGQGLEWMGWISAYNGNTNYAQKLQGRVTMTTDTSTSTAYMELRSLRSDDTAVYYCARVTRLPGGGYAFDIWGQGTMVTVSL
VL: QSVLTQPPSASGTPGQRITISCSGSTSNIGNKHVYWYQQFPGAAPKLLIHNTNKRPSGVPDRFSGSKSGTSASLAISGLQSDDEADYYCAAWDGSLSAWVFGGGTKLTVL
B3: 03B01 (antibody, IgG4, V domains shown)
VH: QMQLVQSGAEVKKPGASVKVSCRASGYRFSTYAISWVRQAPGQGLEWIGWISTHHGNTKYAQKFQDRVTMTADASTSIAYMELRSLRSDDTAVYYCAAAIGNYWGQGTLVTVSS
VL: EIVLTQSPAILSVSPGERASLSCRASQSVSSKLAWYQQKPGQAPRLLIYGASTRATGIPPRFSGSGSGTDFTLTISSLEPEDFAVYYCQQRSNWPLTFGGGTKVEIK
B4: 02H08 (antibody, IgG4, V domains shown)
VH: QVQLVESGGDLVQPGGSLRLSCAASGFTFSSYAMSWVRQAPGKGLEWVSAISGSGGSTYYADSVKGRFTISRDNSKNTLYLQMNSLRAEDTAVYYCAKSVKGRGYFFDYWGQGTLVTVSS
VL: QSVLTQPPSVSAAPGQKVTISCSGSYFNIGNHYVSWYHQLPGTAPKLLIYDNNLRPSGIPDRFSASKSGTSATLGITGLQTGDEGDYYCGTWDSSLSGRVFGGGTKLTVL
B5: 05A07 (antibody, IgG4, V domains shown)
VH: QVQLVQSGSEVKRPGASVKVSCKTSGYTFSNYGIAWVRQAPGQGLEWVGWVSAYNGKTGASQKLQGRVTMTTDRSTTTAYLELRSLQSDDTAVYYCARGVKGGLTGYARDYWGQGTLVIVSS
VL: DIVLTQSPRSLPVTLGQPASISCRSSQSLVNRAGDTYLNWFQQRPGQSPRRLIYKVSNRDSGVPDRFSGSGSGTDFTLKISRVEAEDVGVYYCMQGTQWPYTFGQGTKLEIK

Experiments:
[1] = molecular target: T1, Biotin Y46,48,51(SO3) PSGL-1(42-62) …; assay: ELISA, immobilized biotin peptide
How it was run: (§1)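 In this ELISA, half-well high binding plates (Corning Cat. #3690) received 3 ug/mL/25 ul per well of biotin-tagged PSGL-1 peptides covering residues 42 to 62, diluted in PBS, pH 7.4, and coated overnight at 4° C. Duplicate readings for each antibody were averaged and the average assay background was subtracted. PSGL-1 protein or peptide was the positive control.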

[2] = molecular target: T2, Scrambled Y42,52,63(SO3) PSGL-1(42-62) …; assay: ELISA, immobilized biotin peptide
How it was run: as §1

[3] = molecular target: T3, Biotin PSGL-1(42-62) peptide, unmodified; assay: ELISA, immobilized biotin peptide
How it was run: as §1

[4] = molecular target: T4, Sulfotyrosine CCR2b biotin peptide; assay: ELISA, 50 nM mAb
Description: (§2) Recombinant PSGL-1-hFc1 chimera protein consisting of PSGL-1's extracellular domain (ECD) served as a positive control. […] Primary antibody was added (25 ul per well) in duplicate at 50 nM in assay buffer (blocking buffer containing 0.05% Tween®20) into test and control (just blocked) wells and the plate incubated for 45 min at 37° C.

SulfoCCK biotin peptide = molecular target: T5, SulfoCCK biotin peptide; assay: ELISA, 50 nM mAb
Description: as §2

SulfoTyr C4 peptide = molecular target: T6, SulfoTyr C4 peptide; assay: ELISA, 50 nM mAb
Description: as §2

[5] = molecular target: T7, Human fibrinogen protein (ThermoFisher, …); assay: ELISA, 50 nM mAb
Description: as §2

[6] = molecular target: T8, Sulfotyr fibrinogen γ peptide; assay: ELISA, 50 nM mAb
Description: as §2

[7] = molecular target: T10, Human complement C4 protein (Millipore Sigma, Cat. 204886) (human, UniProt P0C0L4 20-675; P0C0L4 680-1446; P0C0L4 1454-1744, limits assumed, natural sulfotyrosines); assay: ELISA, 50 nM mAb
T10 construct: mature
T10 sequence (P0C0L4 20-675 limits assumed, form in doubt, chain 1 of 3): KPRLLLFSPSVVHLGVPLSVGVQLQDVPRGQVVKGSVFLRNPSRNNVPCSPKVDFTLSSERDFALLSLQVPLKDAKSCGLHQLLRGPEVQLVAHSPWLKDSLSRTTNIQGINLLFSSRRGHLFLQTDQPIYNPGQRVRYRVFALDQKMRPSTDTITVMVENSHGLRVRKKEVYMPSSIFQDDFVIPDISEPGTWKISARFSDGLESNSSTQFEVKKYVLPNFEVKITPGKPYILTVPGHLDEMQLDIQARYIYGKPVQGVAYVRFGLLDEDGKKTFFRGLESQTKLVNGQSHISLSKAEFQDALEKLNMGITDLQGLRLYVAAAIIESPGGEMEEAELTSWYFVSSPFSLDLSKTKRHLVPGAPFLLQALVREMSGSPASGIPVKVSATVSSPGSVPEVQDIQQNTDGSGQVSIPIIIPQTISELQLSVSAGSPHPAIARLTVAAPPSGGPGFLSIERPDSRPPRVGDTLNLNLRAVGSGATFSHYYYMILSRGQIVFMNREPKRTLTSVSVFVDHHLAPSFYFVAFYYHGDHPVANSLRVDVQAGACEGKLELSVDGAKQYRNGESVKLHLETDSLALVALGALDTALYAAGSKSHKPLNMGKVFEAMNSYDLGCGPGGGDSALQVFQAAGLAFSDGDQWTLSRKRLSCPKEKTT
T10 sequence (P0C0L4 680-1446 limits assumed, form in doubt, chain 2 of 3): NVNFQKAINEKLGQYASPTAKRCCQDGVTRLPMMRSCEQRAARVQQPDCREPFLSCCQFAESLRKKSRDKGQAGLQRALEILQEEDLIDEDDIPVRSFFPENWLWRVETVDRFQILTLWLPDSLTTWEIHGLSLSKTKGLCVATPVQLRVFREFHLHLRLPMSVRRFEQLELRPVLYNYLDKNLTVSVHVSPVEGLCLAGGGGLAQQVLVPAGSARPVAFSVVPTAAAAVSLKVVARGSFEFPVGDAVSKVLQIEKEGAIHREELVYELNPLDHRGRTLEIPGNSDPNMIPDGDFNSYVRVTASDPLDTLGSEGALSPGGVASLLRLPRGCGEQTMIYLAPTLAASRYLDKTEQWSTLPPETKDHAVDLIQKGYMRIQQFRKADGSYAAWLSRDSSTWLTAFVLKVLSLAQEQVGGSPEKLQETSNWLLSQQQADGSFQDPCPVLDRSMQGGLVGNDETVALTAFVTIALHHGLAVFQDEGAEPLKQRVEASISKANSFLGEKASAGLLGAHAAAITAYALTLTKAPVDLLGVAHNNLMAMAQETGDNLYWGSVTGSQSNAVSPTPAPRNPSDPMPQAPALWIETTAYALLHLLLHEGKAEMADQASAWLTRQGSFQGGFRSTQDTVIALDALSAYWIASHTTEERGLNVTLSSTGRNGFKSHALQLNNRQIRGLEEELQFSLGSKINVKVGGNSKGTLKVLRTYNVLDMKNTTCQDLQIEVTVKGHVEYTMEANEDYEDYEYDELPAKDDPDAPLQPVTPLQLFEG
T10 sequence (P0C0L4 1454-1744 limits assumed, form in doubt, chain 3 of 3): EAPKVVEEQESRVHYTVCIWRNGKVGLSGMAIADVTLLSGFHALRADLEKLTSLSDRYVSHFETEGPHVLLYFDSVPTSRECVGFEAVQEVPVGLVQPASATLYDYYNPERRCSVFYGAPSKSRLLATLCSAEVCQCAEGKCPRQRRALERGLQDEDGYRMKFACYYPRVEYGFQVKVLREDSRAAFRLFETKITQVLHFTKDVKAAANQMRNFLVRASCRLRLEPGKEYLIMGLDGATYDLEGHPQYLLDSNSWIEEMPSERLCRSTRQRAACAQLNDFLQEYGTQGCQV
Description: as §2

[8] = molecular target: T11, Cynomolgus PSGL-1(ECD)-hFc1 (cynomolgus macaque); assay: ELISA, plate cyno PSGL-1(ECD)-Fc
T11 construct: also called Cyno PSGL1-Fc; Cyno PSGL-1(ECD)-Fc
Description: Antibody binding to plate-immobilized cyno PSGL-1(ECD) was determined either at one concentration (20 nM) or by generating full antibody binding curves (0.003-200 nM). A typical ELISA was performed by overnight coating at 4° C. with 3 ug/mL/25 ul per well of recombinant cyno PSGL-1(ECD) protein in PBS, pH 7.4, in high binding half-well plates (Corning Cat. #3690). […] Anti-PSGL-1 IgG in assay buffer (blocking buffer containing 0.05% tween 20) was added into test and control wells (20 nM/25 ul/well) and the plate incubated for 45 min at 37° C. […] The plate was incubated for 45 min at 37° C., and mAb bound to plate-immobilized target determined at A450 nm using HRP substrate (3,3′,5,5′-tetramethylbenzidine (TMB)). For each antibody, duplicate values were averaged and assay background subtracted.

[9] = molecular target: T9, Sulfotyrosine D6 biotin peptide; assay: ELISA, 50 nM mAb
Description: as §2

Binder | A450nm, 20 nM mAb [1] | binding result [2] | A450nm, 20 nM mAb [3] | binding normalized to PSGL-1 [4] | binding normalized to PSGL-1 (SulfoCCK biotin peptide) | binding normalized to PSGL-1 (SulfoTyr C4 peptide) | binding normalized to PSGL-1 [5] | binding normalized to PSGL-1 [6] | binding normalized to PSGL-1 [7] | binding result [8] | EC50 [1] | EC50 [3] | binding normalized to PSGL-1 [9] | A450nm, 20 nM mAb [2]
B1 | 2.57 A450nm | no binding (tested: 20 nM) | 0.37 A450nm | 0.61 | 0.78 | 0.97 | 0.03 | 1.22 | 1.09 | no binding (tested: 20 nM) | – | – | – | –
B2 | 2.72 A450nm | no binding (tested: 20 nM) | – | 0.78 | 1.1 | 0.94 | 0.07 | 0.97 | 0.58 | no binding (tested: 20 nM) | 0.03 nM | 3.8 nM | 0.69 | –
B3 | 2.62 A450nm | no binding (tested: 20 nM) | – | 1.1 | 1.14 | 1.15 | 0.11 | 1.23 | 1.1 | no binding (tested: 20 nM) | 0.04 nM | ~500 nM | – | 0.04 A450nm
B4 | 2.45 A450nm | no binding (tested: 20 nM) | – | 1.32 | 1.27 | 1.34 | 0.11 | 1.34 | 0.94 | no binding (tested: 20 nM) | 1.6 nM | > 500 nM | – | 0.03 A450nm
B5 | 2.44 A450nm | no binding (tested: 20 nM) | 0.17 A450nm | 1.09 | 1.17 | 1.15 | 0.53 | 1.22 | 1.13 | no binding (tested: 20 nM) | – | – | 1.22 | –
